Substitutions are numbered along the chain they refer to. Where no end group is shown, it is not given here. The star is where a group is joined. Biotin = O=C1N[C@H]2[C@H](CS[C@H]2CCCCC(=O)*)N1
B1: mouse 9F5 antibody (antibody, mouse IgG1, V domains shown)
VH: EVQLQQSGAELVRPGASVKLSCTASGFNIKDDYMNWVKQRPERGLEWIGWIDPENGDTEYASKFQGKATMTADTSSNTAYLQFSSLTSEDTAVYYCTTSNGWGQGTLVTVST
VL: DIVMTQAAFSNPVTLGTSASISCRSSKSLLHSNGITYLYWYLQKPGQSPQLLIYQMSNLASGVPDRFSSSGSGTDFTLRISRVEAEDVGVYYCAQNLELPLTFGAGTKLELK
notes: also called m9F5; murine 9F5
B2: mouse 12C4 antibody (antibody, mouse IgG2a, V domains shown)
VH: B1 VH with K38R, E59A, T91S, T112A
VL: B1 VL
notes: also called m12C4

Key:
human tau oligomers [1] = target: T1, human tau oligomers (human, UniProt P10636-6 2-383, limits assumed); experiment: cell-based or functional assay
T1 sequence (P10636 other isoform, or with tags, fused parts or gaps limits assumed): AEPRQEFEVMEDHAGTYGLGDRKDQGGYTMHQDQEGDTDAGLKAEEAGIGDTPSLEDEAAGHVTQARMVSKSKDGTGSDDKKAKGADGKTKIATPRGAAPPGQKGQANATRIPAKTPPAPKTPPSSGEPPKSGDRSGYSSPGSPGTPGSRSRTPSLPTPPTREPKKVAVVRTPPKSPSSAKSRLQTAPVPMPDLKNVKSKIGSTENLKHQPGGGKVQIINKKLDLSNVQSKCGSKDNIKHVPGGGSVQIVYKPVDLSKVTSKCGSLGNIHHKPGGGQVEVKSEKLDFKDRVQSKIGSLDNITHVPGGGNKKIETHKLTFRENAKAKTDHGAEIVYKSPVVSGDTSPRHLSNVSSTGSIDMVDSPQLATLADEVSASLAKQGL

human tau oligomers [2] = target: T1, human tau oligomers; experiment: cell-based or functional assay; remark: listed apart in the source
[3] = target: T2, biotinylated 15 amino acid tau peptide, residues 302-316 (human); experiment: ELISA, biotinylated peptide on streptavidin plate
T2 peptide: Biotin-GGGSVQIVYKPVDLS
Experimental: (§1) Peptides contained 15 amino acids, with a 5 amino acid overlap. To enable binding to a streptavidin surface, peptides also contained an N-terminal biotin. Peptides were incubated on a streptavidin-coated plate, and the plate was blocked with 1% BSA in 1× PBS. After washing, antibodies were incubated on the plates for 1 hour at room temperature and washed. Plates were then coated with goat anti-mouse horseradish peroxidase (HRP), and washed. Plates were developed with OPD, and absorbance was read at 490 nm. […]

[4] = target: T3, biotinylated 15 amino acid tau peptide, residues 383-397 (human); experiment: ELISA, biotinylated peptide on streptavidin plate
T3 peptide: Biotin-KAKTDHGAEIVYKSP
Experimental: as §1

[5] = target: T4, recombinant human 4R0N tau (human, UniProt P10636 2-758); experiment: SPR Biacore; antibody captured by anti-mouse antibody; tau as analyte; global 1:1 fit
T4 construct: also called recombinant 4R0N human tau; P10636-6
T4 sequence (P10636 other isoform, or with tags, fused parts or gaps limits assumed): as above
Experimental: Surface plasmon resonance (SPR) analysis using Biacore was performed by immobilizing an anti-mouse (GE Lifesciences) antibody to a CM3 chip with EDC/NHS. Antibodies were then captured to the anti-mouse surface to equivalent levels. Regeneration was performed with 2 30 s injections of 10 mM Glycine pH 1.7. Various concentrations ranging from 500 to 0.122 nM, diluted in […] dilutions, of recombinant human 4R0N tau were flowed over the sensor for a 150s association phase and 300 s dissociation phase. Data was blank subtracted to both an irrelevant sensor not containing test antibody to account for irrelevant binding to the prepared sensor surface, and to the mobile phase vehicle to account for the dissociation of test antibody from the anti-mouse capture. Data was then analyzed with onboard evaluation software using a global 1:1 fit.

Binder | MTT viability of primary neurons with tau oligomers, antibody at 0.2 molar equivs (human tau oligomers [1]) | MTT viability of primary neurons with tau oligomers, antibody at 0.33 molar equivs (human tau oligomers [1]) | MTT viability of primary neurons with tau oligomers, antibody at 1 molar equivs (human tau oligomers [1]) | MTT viability of primary neurons with tau oligomers, antibody at 3 molar equivs (human tau oligomers [1]) | MTT viability of primary neurons with tau oligomers, antibody at 5 molar equivs (human tau oligomers [1]) | LDH released by primary neurons with tau oligomers, antibody at 0.2 molar equivs (human tau oligomers [2]) | LDH released by primary neurons with tau oligomers, antibody at 0.33 molar equivs (human tau oligomers [2]) | LDH released by primary neurons with tau oligomers, antibody at 1 molar equivs (human tau oligomers [2]) | LDH released by primary neurons with tau oligomers, antibody at 3 molar equivs (human tau oligomers [2]) | LDH released by primary neurons with tau oligomers, antibody at 5 molar equivs (human tau oligomers [2]) | binding result [3] | binding result [4] | Kd [5] [pM] | koff [5] [s⁻¹] | kon [5] [M⁻¹ s⁻¹]
B1 | 47.4 % of control | 58 % of control | 64.9 % of control | 92.6 % of control | 93.1 % of control | 155 % of control | 152 % of control | 116 % of control | 95.9 % of control | 91.4 % of control | binds | binds | 350 | 0.00224 | 6.39e+06
B2 | 48.6 % of control | 53.2 % of control | 62.3 % of control | 78.7 % of control | 81.1 % of control | 153 % of control | 152 % of control | 124 % of control | 110 % of control | 108 % of control | binds | binds | 363 | 0.00206 | 5.69e+06
